The assay deals with Full-length human DDB1 (human, UniProt Q16531 1-1140). Put plainly: crystal structure.
Sequence of Full-length human DDB1 (Q16531 whole entry): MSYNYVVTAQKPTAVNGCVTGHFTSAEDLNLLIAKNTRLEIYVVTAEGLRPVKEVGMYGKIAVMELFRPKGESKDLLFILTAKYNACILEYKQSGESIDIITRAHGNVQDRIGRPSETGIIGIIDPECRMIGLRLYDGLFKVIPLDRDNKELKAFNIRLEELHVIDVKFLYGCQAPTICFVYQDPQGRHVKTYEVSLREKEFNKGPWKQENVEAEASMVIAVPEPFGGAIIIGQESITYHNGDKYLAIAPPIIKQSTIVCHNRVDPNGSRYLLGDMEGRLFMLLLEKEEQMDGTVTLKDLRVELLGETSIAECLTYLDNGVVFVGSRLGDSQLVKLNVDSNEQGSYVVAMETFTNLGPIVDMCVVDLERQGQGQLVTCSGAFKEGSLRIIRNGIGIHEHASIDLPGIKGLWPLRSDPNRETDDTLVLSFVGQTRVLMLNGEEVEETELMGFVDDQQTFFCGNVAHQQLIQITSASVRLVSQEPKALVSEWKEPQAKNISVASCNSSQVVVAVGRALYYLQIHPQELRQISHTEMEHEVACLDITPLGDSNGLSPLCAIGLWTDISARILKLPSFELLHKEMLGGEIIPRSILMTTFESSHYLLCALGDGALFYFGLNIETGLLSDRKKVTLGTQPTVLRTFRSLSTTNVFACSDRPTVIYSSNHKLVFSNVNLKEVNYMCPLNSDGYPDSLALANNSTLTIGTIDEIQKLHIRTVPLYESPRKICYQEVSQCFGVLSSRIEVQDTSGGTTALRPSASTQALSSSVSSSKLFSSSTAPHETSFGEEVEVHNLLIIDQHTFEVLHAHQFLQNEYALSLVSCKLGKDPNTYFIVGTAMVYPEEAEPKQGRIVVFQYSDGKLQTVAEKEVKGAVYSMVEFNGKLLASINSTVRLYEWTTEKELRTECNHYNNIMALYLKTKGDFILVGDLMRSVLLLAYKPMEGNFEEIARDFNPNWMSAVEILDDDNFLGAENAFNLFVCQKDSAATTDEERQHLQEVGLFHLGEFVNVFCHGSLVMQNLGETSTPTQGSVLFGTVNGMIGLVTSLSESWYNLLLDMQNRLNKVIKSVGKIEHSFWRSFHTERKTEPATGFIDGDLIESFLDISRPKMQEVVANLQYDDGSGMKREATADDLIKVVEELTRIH

Consider NITRDLIRRQIKE (peptide, UniProt Q8N5D0 5-17, looked up) [DCAF9 peptide (amino acids 5 to 17 of DCAF9/WDTC1)], for which the binding result was “binds”.
